Patent publication US20070128190A1 (GLENMARK PHARMACEUTICALS S A, published 2007)

T1: GST-human α2 I domain fusion protein (human, UniProt P17301 153-368)
T1 construct: the reverse primer ends at ...SIEGTV; also called GST-α2 I domain; hα2I; not shown: glutathione S-transferase tag encoded by vector pGEX-2TK
T1 sequence: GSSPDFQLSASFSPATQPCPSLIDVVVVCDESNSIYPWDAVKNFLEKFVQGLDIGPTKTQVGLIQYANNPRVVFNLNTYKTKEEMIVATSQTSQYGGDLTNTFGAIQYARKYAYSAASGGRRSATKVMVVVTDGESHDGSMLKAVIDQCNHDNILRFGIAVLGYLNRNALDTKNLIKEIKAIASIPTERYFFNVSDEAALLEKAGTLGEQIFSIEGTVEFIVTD

B1: Humanized TMC-2206 (hIgG4/κ VH12.0/VL10.0Q) (antibody)
heavy: not shown
light: DFVMTQSPAFLSVTPGEKVTITCSAQSSVNYIHWYQQKPDQAPKKLIYDTSKLASGVPSRFSGSGSGTDYTFTISSLEAEDAATYYCQQWTTNPLTFGQGTKVEIKRTVAAPSVFIFPPSDEQLKSGTASVVCLLNNFYPREAKVQWKVDNALQSGNSQESVTEQDSKDSTYSLSSTLTLSKADYEKHKVYACEVTHQGLSSPVTKSFNRGEC
notes: labelled with Eu or Alexa-488 in some assays
B2: TMC-2206 (antibody, mouse IgG1, V domains shown)
VH: QVQLKESGPGLVAPSQSLSITCTVSGFSLTNYGIHWVRQPPGKGLEWLGVIWARGFTNYNSALMSRLIITKDNSQSQVFLKMNSLQPDDSATYFCARANDGVYYAMDYWGQGTSVTVSS
VL: QFVLTQSPAFLSASPGEKVTMTCSANSSVNYIHWYQQKSGTSPKKWIYDTSKLASGVPVRFSGSGSGTSYSLTISSMETEDAATYYCQQWTTNPLTFGAGTRVELK
notes: murine IgG1/κ secreted by hybridoma BHA2.1; labelled with Eu-N1-ITC where used as tracer; also called BHA2.1

Assays:
[1] = target: T2, human platelet α2β1 integrin (immobilized on microtiter plates) (human, UniProt P17301 30-1181; P05556 21-798); experiment: competition with Eu-humanized TMC-2206 on α2β1-coated plates
T2 construct: plates custom-coated with human platelet α2β1 by GTI Inc; also called immobilized α2β1 integrin; α2β1-coated plates
Excerpt: The inhibition curves were fitted with the “one site competition” model using Prism software (GraphPad, Inc.) to obtain IC₅₀ values and to calculate the Kᵢ using the equation of Cheng and Prusoff (1973) and the respective values for KD from above.
The cloning of the human, rhesus macaque, rat, and mouse α2 I domains were described in Example 12. Cynomolgus and additional rhesus monkey α2 I domains were cloned from cDNA derived from total RNA extracted from skin tissue (MediCorp, Inc., Montreal, QC).

[2] = target: human α2β1 integrin on human cells (platelets, leukocytes, HT1080) (human, UniProt P17301 30-1181; P05556 21-798); experiment: cell-based or functional assay
[3] = target: T1, GST-human α2 I domain fusion protein; experiment: SPR (Biacore 2000), antibody captured, GST-α2 I domain in solution
[4] = target: T2, human platelet α2β1 integrin …; experiment: competition with Eu-humanized TMC-2206 on human platelet α2β1-coated plate
Experimental: The MAb/bicarbonate mixture (0.250 mL) was gently mixed into a vial containing 0.2 mg N¹-(p-isothiocyanatobenzyl)-diethylenetriamine-N¹,N²,N³,N³-tetraacetic acid chelated with Eu³⁺ (Eu-N1-ITC; Perkin Elmer Life Sciences) and incubated overnight at 4° C. without stirring. The labeled antibody mixture was applied to a PD-10 column (GE Biosciences, Piscataway, N.J.) pre-equilibrated with Running Buffer (50 mM Tris, pH 7.4 and 138 mM NaCl). Fractions (0.5 mL) were collected and assayed for total protein (Bradford reagent; Bio-Rad Laboratories, Hercules, Calif.) using a SpectraMax 384 absorbance plate reader and for europium after 1:10.000 dilution in DELFIA Enhancement Solution (Perkin-Elmer) by time-resolved fluorescence (TRF) using a Victor2 multi-label plate reader (Perkin Elmer). The fractions that were positive for both protein and europium label were pooled, applied to a new PD-10 column, and samples collected and assayed for total protein and for europium content by TRF calibrated against a europium standard solution (Perkin-Elmer) to calculate the fluor : protein ratio. […] The plate was shaken (Titer Plate Shaker, speed setting of 5, 5 minutes at room temperature) and TRF intensities were read using the Victor2 multi-label plate reader. The KD values were calculated by Scatchard analyses.

[5] = target: T2, human platelet α2β1 integrin …; experiment: equilibrium binding of Eu-labelled antibody to human platelet α2β1-coated plate, Scatchard
Experimental: Wells in a 96-well microtiter plate were coated with platelet α2β1-integrin (custom-coated with human platelet α2β1 by GTI Inc., WI) and then blocked with nonfat milk. […] After concentration in prewashed MicroSep concentrators [30-kDa cutoff; Pall Life Sciences at 9500 rpm (7000×g) in a JA-20 rotor (Beckman Instruments, Inc.] for 20 minutes at 4° C.), the antibody was adjusted to 4.0 mg/mL with PBS, 100 mM NaHCO₃, pH 9.3. The MAb/bicarbonate mixture (0.250 mL) was gently mixed into a vial containing 0.2 mg N¹-(p-isothiocyanatobenzyl)-diethylenetriamine-N¹,N²,N³,N³-tetraacetic acid chelated with Eu³⁺ (Eu-N1-ITC; Perkin Elmer Life Sciences) and incubated overnight at 4° C. without stirring. The labeled antibody mixture was applied to a PD-10 column (GE Biosciences, Piscataway, N.J.) pre-equilibrated with Running Buffer (50 mM Tris, pH 7.4 and 138 mM NaCl). Fractions (0.5 mL) were collected and assayed for total protein (Bradford reagent; Bio-Rad Laboratories, Hercules, Calif.) using a SpectraMax 384 absorbance plate reader and for europium after 1:10.000 dilution in DELFIA Enhancement Solution (Perkin-Elmer) by time-resolved fluorescence (TRF) using a Victor2 multi-label plate reader (Perkin Elmer). […]

[6] = target: T2, human platelet α2β1 integrin …; experiment: competition with Eu-TMC-2206 on human platelet α2β1-coated plate
Experimental: Exemplary IgG1 antibodies have a hVH 14.0 γ heavy chain (SEQ ID NO:181) or a hVH12.0 γ1 heavy chain (SEQ ID NO:182) and a hVL10.0Q light chain (SEQ ID NO:178). Exemplary IgG4 antibodies have a hVH14.0 γ4 heavy chain (SEQ ID NO:174) or a hVH12.0 γ4 heavy chain (SEQ ID NO:176) and a hVL 10.0Q light chain (SEQ ID NO:178). Purified antibodies were tested in the competition assay to compare potency by Kᵢ values as well as in the cell adhesion to collagen assay, where potency is measured as EC₅₀ values.

Binder | Ki [1] [nM] | EC50 (nm), human platelets on human placenta Type I collagen (n = 1) [2] [nM] | Kd [3] [nM] | koff [3] [s⁻¹] | kon [3] [M⁻¹ s⁻¹] | Ki [4] [nM] | Kd [5] [nM] | Ki [6] [nM]
B1 | 0.34 | 13.1 | 2.3 | 0.00082 | 350000 | 0.41 | 1.29 | 0.27
B2 | 0.14 | 8.44 | 2.9 | 0.0011 | 380000 | 0.21 | 0.72 | 0.22
